# Assays:
# Assay in all cases: Kinase Profiling Assay
# Format in all cases: biochemical
# Conditions in all cases: 100 μM peptide
# [1] = target: T1, DYRK2(h) (Homo sapiens, UniProt Q92630)
# T1 sequence (Q92630 1-601): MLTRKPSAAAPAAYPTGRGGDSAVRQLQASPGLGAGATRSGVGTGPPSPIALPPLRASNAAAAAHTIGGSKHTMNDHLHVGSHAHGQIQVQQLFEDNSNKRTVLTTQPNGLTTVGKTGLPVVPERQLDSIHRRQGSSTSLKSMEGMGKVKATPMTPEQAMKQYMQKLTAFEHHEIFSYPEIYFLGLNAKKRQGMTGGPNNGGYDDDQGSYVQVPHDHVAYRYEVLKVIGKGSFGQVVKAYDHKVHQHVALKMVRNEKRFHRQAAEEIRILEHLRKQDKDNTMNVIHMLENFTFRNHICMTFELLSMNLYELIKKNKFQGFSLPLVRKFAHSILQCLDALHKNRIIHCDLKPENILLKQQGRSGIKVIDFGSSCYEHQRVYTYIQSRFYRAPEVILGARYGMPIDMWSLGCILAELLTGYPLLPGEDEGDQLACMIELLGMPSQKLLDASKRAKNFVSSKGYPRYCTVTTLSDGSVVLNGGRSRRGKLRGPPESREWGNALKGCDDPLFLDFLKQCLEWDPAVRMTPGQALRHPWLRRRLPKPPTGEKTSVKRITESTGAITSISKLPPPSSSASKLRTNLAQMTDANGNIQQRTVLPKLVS
# Procedure, shortened: (§1)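 Off-target screen of MK2 peptide inhibitors, 266 human kinases, n = 2 per activity measurement.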
# [2] = target: CaMKIIβ(h) (Homo sapiens, UniProt Q13554)
# Procedure, shortened: as §1
# [3] = target: Met(D1246N)(h) (Homo sapiens, UniProt P08581, D1228N)
# Procedure, shortened: as §1
# [4] = target: CK2(h) (Homo sapiens, UniProt P68400)
# Procedure, shortened: as §1
# [5] = target: PKCδ(h) (Homo sapiens, UniProt Q05655)
# Procedure, shortened: as §1
# [6] = target: T2, NLK(h) (Homo sapiens, UniProt Q9UBE8)
# T2 sequence (Q9UBE8 1-527): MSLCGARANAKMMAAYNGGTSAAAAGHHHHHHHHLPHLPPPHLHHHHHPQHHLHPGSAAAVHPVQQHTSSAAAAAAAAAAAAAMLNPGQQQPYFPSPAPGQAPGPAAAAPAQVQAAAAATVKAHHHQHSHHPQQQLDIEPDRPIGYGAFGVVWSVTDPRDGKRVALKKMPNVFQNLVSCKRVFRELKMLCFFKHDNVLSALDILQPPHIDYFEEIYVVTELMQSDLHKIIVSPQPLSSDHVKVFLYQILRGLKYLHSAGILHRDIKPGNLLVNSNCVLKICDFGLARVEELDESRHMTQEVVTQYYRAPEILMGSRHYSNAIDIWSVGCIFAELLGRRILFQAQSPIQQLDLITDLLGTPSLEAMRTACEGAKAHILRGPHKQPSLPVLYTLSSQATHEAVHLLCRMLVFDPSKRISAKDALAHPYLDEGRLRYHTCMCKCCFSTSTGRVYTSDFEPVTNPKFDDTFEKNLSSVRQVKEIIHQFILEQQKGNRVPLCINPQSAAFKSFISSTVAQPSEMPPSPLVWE
# Procedure, shortened: as §1
# [7] = target: FGFR2(h) (Homo sapiens, UniProt P21802)
# Procedure, shortened: as §1
# [8] = target: T3, SAPK4(h) (Homo sapiens, UniProt O15264)
# T3 sequence (O15264 1-365): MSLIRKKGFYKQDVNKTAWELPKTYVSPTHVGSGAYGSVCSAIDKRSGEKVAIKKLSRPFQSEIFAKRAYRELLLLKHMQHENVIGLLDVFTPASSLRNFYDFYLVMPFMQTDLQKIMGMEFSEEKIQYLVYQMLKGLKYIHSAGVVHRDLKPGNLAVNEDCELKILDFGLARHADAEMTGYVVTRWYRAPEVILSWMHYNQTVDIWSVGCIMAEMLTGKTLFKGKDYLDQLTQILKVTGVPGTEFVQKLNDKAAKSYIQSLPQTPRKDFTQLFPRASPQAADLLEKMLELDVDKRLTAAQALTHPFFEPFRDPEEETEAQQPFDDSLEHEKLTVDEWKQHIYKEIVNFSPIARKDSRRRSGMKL
# Procedure, shortened: as §1
# [9] = target: EGFR(L861Q)(h) (Homo sapiens, UniProt P00533, L861Q)
# Procedure, shortened: as §1
# [10] = target: T4, TAK1(h) (Homo sapiens, UniProt O43318)
# T4 sequence (O43318 1-303 limits assumed): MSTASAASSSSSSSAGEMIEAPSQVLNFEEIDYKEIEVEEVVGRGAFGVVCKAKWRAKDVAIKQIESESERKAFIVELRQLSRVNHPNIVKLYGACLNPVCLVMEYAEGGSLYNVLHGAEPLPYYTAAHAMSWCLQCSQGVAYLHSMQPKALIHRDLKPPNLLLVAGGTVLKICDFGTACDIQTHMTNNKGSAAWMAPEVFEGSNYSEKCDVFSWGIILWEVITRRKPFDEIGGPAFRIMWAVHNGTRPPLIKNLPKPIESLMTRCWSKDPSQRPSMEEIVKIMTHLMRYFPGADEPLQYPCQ
# Procedure, shortened: as §1
# Sequence of CK2(h) (P68400 whole entry): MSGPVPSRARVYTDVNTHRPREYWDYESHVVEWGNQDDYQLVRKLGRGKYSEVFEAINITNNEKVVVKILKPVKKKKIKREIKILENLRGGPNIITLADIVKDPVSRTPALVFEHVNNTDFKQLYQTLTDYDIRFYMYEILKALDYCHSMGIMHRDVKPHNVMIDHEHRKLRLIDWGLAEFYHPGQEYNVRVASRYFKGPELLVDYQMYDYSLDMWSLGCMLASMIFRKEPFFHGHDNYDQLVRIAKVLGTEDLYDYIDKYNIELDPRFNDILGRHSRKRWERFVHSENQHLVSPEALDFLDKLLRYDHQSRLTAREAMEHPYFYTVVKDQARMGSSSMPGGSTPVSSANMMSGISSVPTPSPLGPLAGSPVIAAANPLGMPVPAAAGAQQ
# Sequence of CK2(h) (P67870 whole entry partner): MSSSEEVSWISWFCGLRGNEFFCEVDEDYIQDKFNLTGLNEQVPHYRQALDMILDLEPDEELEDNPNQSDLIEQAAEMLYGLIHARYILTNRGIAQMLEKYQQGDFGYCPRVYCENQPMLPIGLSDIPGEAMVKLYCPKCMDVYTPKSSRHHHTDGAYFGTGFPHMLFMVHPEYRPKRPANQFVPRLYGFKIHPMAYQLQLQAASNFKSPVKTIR
# Sequence of PKCδ(h) (Q05655 whole entry): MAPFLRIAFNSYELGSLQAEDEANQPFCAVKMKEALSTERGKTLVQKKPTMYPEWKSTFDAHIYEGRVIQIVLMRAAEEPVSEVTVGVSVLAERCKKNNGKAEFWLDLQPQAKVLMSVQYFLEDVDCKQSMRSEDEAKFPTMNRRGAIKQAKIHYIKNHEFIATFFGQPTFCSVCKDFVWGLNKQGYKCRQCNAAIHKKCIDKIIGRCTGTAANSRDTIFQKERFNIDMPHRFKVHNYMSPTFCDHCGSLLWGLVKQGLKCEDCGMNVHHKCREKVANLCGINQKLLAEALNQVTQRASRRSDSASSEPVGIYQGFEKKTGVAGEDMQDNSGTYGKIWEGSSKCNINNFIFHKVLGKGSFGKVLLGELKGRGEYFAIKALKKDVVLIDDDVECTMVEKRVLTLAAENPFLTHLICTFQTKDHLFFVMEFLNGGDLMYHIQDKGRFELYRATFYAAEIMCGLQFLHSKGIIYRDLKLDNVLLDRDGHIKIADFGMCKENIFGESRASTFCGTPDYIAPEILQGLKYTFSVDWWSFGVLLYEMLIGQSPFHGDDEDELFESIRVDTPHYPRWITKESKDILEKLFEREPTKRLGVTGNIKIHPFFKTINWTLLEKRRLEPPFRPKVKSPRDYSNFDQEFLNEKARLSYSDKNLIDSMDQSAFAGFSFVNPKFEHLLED
# Sequence of CaMKIIβ(h) (Q13554 whole entry): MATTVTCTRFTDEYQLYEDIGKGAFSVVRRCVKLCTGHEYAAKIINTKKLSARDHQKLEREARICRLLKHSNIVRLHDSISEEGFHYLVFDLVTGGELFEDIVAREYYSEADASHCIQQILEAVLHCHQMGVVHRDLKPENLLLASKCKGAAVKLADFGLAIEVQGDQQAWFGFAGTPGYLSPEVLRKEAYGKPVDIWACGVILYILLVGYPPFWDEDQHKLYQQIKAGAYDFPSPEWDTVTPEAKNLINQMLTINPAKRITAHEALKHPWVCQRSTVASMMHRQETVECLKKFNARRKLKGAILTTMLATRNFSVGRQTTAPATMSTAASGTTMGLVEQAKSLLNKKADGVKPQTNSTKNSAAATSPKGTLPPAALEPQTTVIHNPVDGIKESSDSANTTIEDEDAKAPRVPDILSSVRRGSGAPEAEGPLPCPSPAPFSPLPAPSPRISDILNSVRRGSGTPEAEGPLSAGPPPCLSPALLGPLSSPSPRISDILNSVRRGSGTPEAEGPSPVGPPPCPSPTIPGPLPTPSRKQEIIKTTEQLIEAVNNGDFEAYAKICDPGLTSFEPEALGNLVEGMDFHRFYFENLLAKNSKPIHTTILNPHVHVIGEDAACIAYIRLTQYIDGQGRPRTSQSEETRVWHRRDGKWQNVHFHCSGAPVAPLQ
Sequence,DYRK2(h) % activity [1],CaMKIIβ(h) % activity [2],Met(D1246N)(h) % activity [3],CK2(h) % activity [4],PKCδ(h) % activity [5],NLK(h) % activity [6],FGFR2(h) % activity [7],SAPK4(h) % activity [8],EGFR(L861Q)(h) % activity [9],TAK1(h) % activity [10]
HRRIKAWLKKIKALARQLGVAA (Mammalian) [MMI-0500],127%,3%,90%,93%,61%,19%,12%,48%,15%,
KAFAKLAARLYRKALARQLGVAA [MMI-0400],195%,11%,31%,101%,90%,90%,18%,91%,22%,177%
FAKLAARLYRKALARQLGVAA [MMI-0300],155%,2%,82%,90%,101%,87%,14%,96%,25%,122%
YARAAARQARAKALNRQLGVA (Mammalian) [MMI-0200],142%,53%,149%,83%,101%,,73%,,74%,124%

# From patent US10562947B2, “Compositions and methods for preventing or treating diseases, conditions or processes characterized by aberrant fibroblast proliferation and extracellular matrix deposition” (MOERAE MATRIX, INC., priority 2011, dated 2020)
